# Source: patent publication US7816334B2, “Materials and methods relating to immune responses to fusion proteins” (Cancer Research Technology Limited, priority 2000, dated 2010)
# Biological target: T1, H2-K^b (Mus musculus, UniProt P01901)
# T1 sequence (P01901 22-369): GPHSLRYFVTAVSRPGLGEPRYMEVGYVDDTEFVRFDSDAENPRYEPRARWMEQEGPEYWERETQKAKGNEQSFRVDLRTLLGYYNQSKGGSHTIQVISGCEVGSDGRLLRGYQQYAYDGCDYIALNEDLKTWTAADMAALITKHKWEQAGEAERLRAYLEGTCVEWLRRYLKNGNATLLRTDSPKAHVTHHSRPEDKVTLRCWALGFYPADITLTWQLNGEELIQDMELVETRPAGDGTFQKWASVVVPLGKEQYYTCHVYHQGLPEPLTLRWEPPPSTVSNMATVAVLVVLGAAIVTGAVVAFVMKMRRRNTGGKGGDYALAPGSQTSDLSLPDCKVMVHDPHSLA
# T1 sequence (P01887 21-119 partner): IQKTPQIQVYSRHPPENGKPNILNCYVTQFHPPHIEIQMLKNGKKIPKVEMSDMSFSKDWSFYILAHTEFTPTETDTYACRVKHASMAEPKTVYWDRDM
# Assay: Peptide binding assay (assembly/stabilization assay in RMA-S cell lysate)
# Details: in vitro binding assay, compared with positive control peptide SEV
# Protocol: Binding of each peptide to H2-K^b was performed using the assembly assay as described (29). This assay is based on the observation that, in a detergent lysate of RMA-S cells, K^b molecules are unstable and dissociate after an overnight incubation at 4° C. unless a stabilising (K^b-binding) peptide is added at the time of lysis. Only stabilised K^b molecules can therefore be recovered by immunoprecipitation with mAb Y3 after overnight incubation. The amount of recovered K^b is directly proportional to the amount of peptide bound, and the concentration of peptide required to effect 50% maximal recovery represents an approximate binding affinity (29). Recovery of H2-K^b heavy chains (HC) was quantitated after immunoprecipitation and SDS PAGE using AIDA (Fuji).
row,Sequence,binding to H2-K^b
1,LNIYYRRL [peptide 2],comparable to the positive control
2,SNWYFNHL [peptide 1],comparable to the positive control
